Values quoted from earlier work as cited in article PMC5538147.
pKd: −log10 of the molar value.

Target: UvrD (Escherichia coli) (UniProt P03018)

pKd: 6.33
Substance: UvrD (from UniProt P03018)
